Measured values published in patent US20200017880A1.

Key:
[1] = target: CD3 on Jurkat cells and on PBMCs (UniProt P07766); test: flow cytometry; second Fab-multimer staining of PBMCs that had been stained reversibly, treated with D-biotin and washed (control panel, far right)
[2] = target: CD28 on cells (PBMCs, T responder cells) (human) (UniProt P10747); test: flow cytometry; Fab monomers remaining on the liberated CD28+ cells after D-biotin and washing, detected with an antibody against the immunoglobulin kappa light chain

Sequence of UniProt P07766 (P07766 23-207): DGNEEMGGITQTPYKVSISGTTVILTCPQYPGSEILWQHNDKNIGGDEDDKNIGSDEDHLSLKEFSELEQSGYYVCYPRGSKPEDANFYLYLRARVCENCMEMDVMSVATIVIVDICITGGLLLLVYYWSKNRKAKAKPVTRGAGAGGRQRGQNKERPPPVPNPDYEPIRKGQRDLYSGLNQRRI

Row | Substance | % of cells within gate [1] [%] | % of cells within gate [2] [%]
1 | OKT3 Fab fragments multimerized by reversible binding to soluble Strep-Tactin conjugated with phycoerythrin | 64.7 | –
2 | anti-CD28 Fab fragment derived from antibody CD28.3, heavy chain C-terminally fused to Twin-Strep-tag (monomeric Fab) | – | 5.91
